Molecular target: Gli1 (from hisSUMO-Gli1, Addgene 87225, His-SUMO tag cleaved) (UniProt P08151 234-388)
Experiment: SPR

Gli1 (from hisSUMO-Gli1, Addgene 87225, His-SUMO tag cleaved), sequence (P08151 234-388): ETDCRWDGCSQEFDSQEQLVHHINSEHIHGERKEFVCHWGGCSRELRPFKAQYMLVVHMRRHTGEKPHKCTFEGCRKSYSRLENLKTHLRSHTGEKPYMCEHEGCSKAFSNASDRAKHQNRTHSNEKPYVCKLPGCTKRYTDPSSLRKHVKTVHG

B1: biotinylated GLI1 consensus dsDNA (SPR) (dsDNA)
DNA 1: ACGTGGACCACCCAAGACGAA
DNA 2: TTTCGTCTTGGGTGGTCCACGT
B1: binds.
